Source: US20250163161A1 (TECHNISCHE UNIVERSIT T DARMSTADT, published 2025)
Read-outs that look alike come from different tables or passages of the source. One block for each binder: values may come before it.

Key:
475-621 = 475-621 (human, UniProt P00533); assay: flow cytometry on yeast cells displaying truncated EGFR fragments; detection with goat anti-human Fc PE
273-621 = 273-621 (human, UniProt P00533); assay: as above
294-543 = 294-543 (human, UniProt P00533); assay: as above
[1] = biological target: PD-L1 on cells (A431; cells of the Promega PD-L1 blockade assay kit) (UniProt Q9NZQ7 19-290); assay: cell-based or functional assay
PD-L1 on cells (A431; cells of the Promega PD-L1 blockade assay kit), sequence (Q9NZQ7 19-290): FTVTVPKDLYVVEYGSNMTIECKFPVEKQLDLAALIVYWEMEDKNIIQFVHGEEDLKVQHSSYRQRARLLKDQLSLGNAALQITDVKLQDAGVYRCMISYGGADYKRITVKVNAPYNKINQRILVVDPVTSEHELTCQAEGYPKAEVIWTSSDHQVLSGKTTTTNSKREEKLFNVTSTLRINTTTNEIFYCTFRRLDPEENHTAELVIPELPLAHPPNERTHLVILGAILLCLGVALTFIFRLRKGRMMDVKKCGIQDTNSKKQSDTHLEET

[2] = biological target: T1, epidermal growth factor receptor (EGFR), soluble, as used in BLI (UniProt P00533 25-645); assay: BLI
T1 construct: extracellular domain; also called EGFR-ECD

[3] = biological target: T2, programmed death-ligand 1 (PD-L1), soluble, as used in BLI (UniProt Q9NZQ7 19-238); assay: BLI
T2 construct: extracellular domain; also called PD-L1-ECD
T2 sequence (Q9NZQ7 19-238): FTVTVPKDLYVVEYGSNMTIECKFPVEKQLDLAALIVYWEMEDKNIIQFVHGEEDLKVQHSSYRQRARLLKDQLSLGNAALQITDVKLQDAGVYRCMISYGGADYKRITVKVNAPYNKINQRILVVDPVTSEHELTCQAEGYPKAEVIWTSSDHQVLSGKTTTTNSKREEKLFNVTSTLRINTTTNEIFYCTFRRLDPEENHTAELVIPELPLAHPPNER

[4] = biological target: T1, epidermal growth factor receptor …; assay: BLI; remark: listed apart in the source
[5] = biological target: T2, programmed death-ligand 1 (PD-L1), …; assay: BLI; remark: listed apart in the source
[6] = biological target: T3, EGFR and PD-L1 on EGFR/PD-L1 double positive A431 cells (UniProt P00533 25-1210; Q9NZQ7 19-290); assay: flow cytometry on EGFR/PD-L1 double-positive A431 cells, anti-human Fc PE detection
T3 construct: whole, on cells; Two separate cell-surface proteins, not a complex; also called A431 (EGFR+/PD-L1+)

[7] = biological target: T4, soluble IL-6R (sIL-6R-TS) (UniProt P08887 20-358); assay: BLI simultaneous binding; antibody on AHC biosensors; 200 nM IL-6R, then 500 nM EGFR, then 500 nM PD-L1, 300 s each
T4 construct: not shown: TwinStrepII tag (TS)
T4 sequence (looked up): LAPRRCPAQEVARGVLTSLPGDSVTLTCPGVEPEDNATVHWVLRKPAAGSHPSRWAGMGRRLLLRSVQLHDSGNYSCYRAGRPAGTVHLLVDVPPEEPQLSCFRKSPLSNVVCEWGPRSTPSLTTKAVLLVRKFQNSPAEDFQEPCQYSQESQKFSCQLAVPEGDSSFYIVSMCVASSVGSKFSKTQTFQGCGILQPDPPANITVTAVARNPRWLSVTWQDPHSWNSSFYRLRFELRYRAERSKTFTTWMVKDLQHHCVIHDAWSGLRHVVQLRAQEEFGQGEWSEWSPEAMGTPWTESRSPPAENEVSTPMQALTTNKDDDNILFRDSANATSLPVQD

[8] = biological target: T5, IL-6R on cells (THP-1, A549) (UniProt P08887 20-468, limits assumed); assay: flow cytometry on THP-1 cells; legend: - represents no significant binding
T5 construct: whole, on cells; also called THP-1 (IL-6R+/PD-L1+)
T5 sequence (looked up): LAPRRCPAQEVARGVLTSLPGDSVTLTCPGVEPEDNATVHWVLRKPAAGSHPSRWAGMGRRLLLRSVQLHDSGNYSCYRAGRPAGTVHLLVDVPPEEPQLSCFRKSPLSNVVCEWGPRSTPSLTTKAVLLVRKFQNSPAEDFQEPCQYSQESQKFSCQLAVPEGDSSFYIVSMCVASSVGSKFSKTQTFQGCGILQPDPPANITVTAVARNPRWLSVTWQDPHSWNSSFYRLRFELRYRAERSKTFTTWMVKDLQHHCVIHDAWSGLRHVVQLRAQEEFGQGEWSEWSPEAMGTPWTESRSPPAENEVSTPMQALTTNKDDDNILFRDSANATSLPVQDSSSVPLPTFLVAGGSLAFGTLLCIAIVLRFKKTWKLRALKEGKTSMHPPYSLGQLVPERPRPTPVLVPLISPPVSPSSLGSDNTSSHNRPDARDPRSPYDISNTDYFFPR

[9] = biological target: T3, EGFR and PD-L1 on EGFR/PD-L1 double …; assay: flow cytometry on A431 cells
[10] = biological target: T6, His6-EGFR-TS (soluble, monomeric EGFR) (UniProt P00533 25-645); assay: BLI, antibody on AHC biosensors
T6 construct: not shown: TwinStrepII tag (TS)

[11] = biological target: T7, His6-PD-L1-TS (soluble, monomeric PD-L1) (UniProt Q9NZQ7 19-238); assay: BLI, antibody on AHC biosensors
T7 construct: not shown: TwinStrepII tag (TS)
T7 sequence (Q9NZQ7 other isoform, or with tags, fused parts or gaps): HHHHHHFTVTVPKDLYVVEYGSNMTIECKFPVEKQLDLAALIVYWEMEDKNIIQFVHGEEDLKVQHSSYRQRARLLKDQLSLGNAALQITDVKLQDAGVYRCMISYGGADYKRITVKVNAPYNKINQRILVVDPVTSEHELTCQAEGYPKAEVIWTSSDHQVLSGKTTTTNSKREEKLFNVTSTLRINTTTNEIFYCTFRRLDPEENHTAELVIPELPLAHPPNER

[12] = biological target: T3, EGFR and PD-L1 on EGFR/PD-L1 double …; assay: flow cytometry; Jurkat cells with antibody mixed with Calcein AM-stained A431 cells; anti-human Fc PE detection; Q2 = PE-positive Calcein-stained A431 events; Neg Ctrl Q2 0.13
[13] = biological target: T8, CD3 (CD3ε) on cells (Jurkat; TCR/CD3 effector cells) (UniProt P07766 23-207, limits assumed); assay: flow cytometry; Jurkat cells with antibody mixed with Calcein AM-stained A431 cells; anti-human Fc PE detection; Q3 = CD3-binding on Jurkats
T8 construct: whole, on cells; that number is the CD3ε entry; also called Jurkat (CD3+)
T8 sequence (P07766 23-207 limits assumed): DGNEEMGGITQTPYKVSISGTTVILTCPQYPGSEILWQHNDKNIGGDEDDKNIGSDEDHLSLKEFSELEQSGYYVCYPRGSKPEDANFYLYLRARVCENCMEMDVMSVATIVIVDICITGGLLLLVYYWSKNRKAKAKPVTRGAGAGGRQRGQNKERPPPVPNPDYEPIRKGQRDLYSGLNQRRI

[14] = biological target: T4, soluble IL-6R (sIL-6R-TS); assay: BLI, antibody on AHC biosensors

- binding result (475-621): no binding
- binding result (273-621): no binding
- binding result (294-543): no binding
- EC50, cell-based PD-1/PD-L1 blockage assay (luciferase activity) [1]: 214 nM
- Kd [2]: 236 nM
- Kd [4]: 236 nM
- koff [4]: 0.0981 s⁻¹
- kon [4]: 415000 M⁻¹ s⁻¹
- EC50 [6]: 1.37 nM
B1: HCP-LCE (heavy chain PD-L1-light chain EGFR) Two-in-One antibody (bispecific antibody, human IgG1, lambda, L234A L235A, V domains shown)
VH: AVTLDESGGGLQTPGGALSLVCKASGFDFSSYDMAWVRQAPGKGLEWVAGIKSNGPWTNYGAAVKGRATISRDNGQSTVRLQLNNLRAEDTAIYYCAKPGAGYVGWDAAGTIDSWGHGTEVIVSS
VL: ALTQPSSVSANLGETVKITCSGGAYSDCGWYQQKSPGSAPVTVIYYNDKRPSDIPSRFSGSTFGSTATLTITGVQAEDEAVYYCGGYDSRTGYVGVFGAGTTLTVLG
notes: Symmetric full-length IgG; heavy chain is the ICI2 heavy chain, lambda CL; also called 2in1
- Kd [3]: 78.3 nM
- Kd [5]: 78.3 nM
- koff [5]: 0.0762 s⁻¹
- kon [5]: 973000 M⁻¹ s⁻¹

- binding result [7]: no binding (tested: 200 nM)
- binding result [8]: no binding
- On-cell affinity [9]: 1.82 nM
- Kd [10]: 236 nM
- Kd [11]: 108 nM
- Q2 (FITC+/PE+) % of events [12]: 15%
B2: (αCD3ε)K+H (bispecific antibody)
heavy 1: not shown
heavy 2: B1 VH
light: ALTQPSSVSANLGETVKITCSGGAYSDCGWYQQKSPGSAPVTVIYYNDKRPSDIPSRFSGSTFGSTATLTITGVQAEDEAVYYCGGYDSRTGYVGVFGAGTTLTVLGQPKANPTVTLFPPSSEELQANKATLVCLISDFYPGAVTVAWKADGSPVKAGVETTKPSKQSNNKYAASSYLSLTPEQWKSHRSYSCQVTHEGSTVEKTVAPTECS
notes: Control variant with anti-CD3ε scFv fused to the N-terminus of the VH of the knob chain; not shown: CH1 and Knob-Fc (IgG1 LALA) with Twin-StrepII tag; CH1 and Hole-Fc (IgG1 LALA) with His6 tag

- binding result [13]: no binding
- binding result [7]: no binding (tested: 200 nM)
- binding result [8]: no binding
- On-cell affinity [9]: 2.5 nM
- Kd [10]: 173 nM
- Kd [11]: 92.9 nM
- Q2 (FITC+/PE+) % of events [12]: 14%
B3: K+H (parental two-in-one antibody in Knob-into-Hole, effector-silenced LALA IgG1 format) (bispecific antibody, V domains shown)
VH: B1 VH
VL: B1 VL
notes: HCP-LCE Fabs on IgG1 LALA Knob-into-Hole Fc; also called parental K+H antibody

- On-cell affinity [9]: 12.3 nM
- Kd [10]: 271 nM
- Kd [11]: 130 nM
- Kd [14]: 2.71 nM
- Q2 (FITC+/PE+) % of events [12]: 16.5%
B4: (αCD3ε)K(αIL-6R)+H(αIL-6R) TriTECM (bispecific antibody)
heavy 1: not shown
heavy 2: AVTLDESGGGLQTPGGALSLVCKASGFDFSSYDMAWVRQAPGKGLEWVAGIKSNGPWTNYGAAVKGRATISRDNGQSTVRLQLNNLRAEDTAIYYCAKPGAGYVGWDAAGTIDSWGHGTEVIVSSASTKGPSVFPLAPSSKSTSGGTAALGCLVKDYFPEPVTVSWNSGALTSGVHTFPAVLQSSGLYSLSSVVTVPSSSLGTQTYICNVNHKPSNTKVDKRVEPKSCDKTHTCPPCPAPEAAGGPSVFLFPPKPKDTLMISRTPEVTCVVVDVSHEDPEVKFNWYVDGVEVHNAKTKPREEQYNSTYRVVSVLTVLHQDWLNGKEYKCKVSNKALPAPIEKTISKAKGQPREPQVYTLPPSREEMTKNQVSLSCAVKGFYPSDIAVEWESNGQPENNYKTTPPVLDSDGSFFLVSKLTVDKSRWQQGNVFSCSVMHEALHNRFTQKSLSLSPGGSHHHHHHGGGGSGGGGSGGGGSSEVQLVESGGGLVQPGRSLRLSCAASRFTFDDYAMHWVRQAPGKGLEWVSGISWNSGRIGYADSVKGRFTISRDNAENSLFLQMNGLRAEDTALYYCAKGRDSFDIWGQGTMVTVSSAGGGGSGGGGSGGGGSSDIQMTQSPSSVSASVGDRVTITCRASQGISSWLAWYQQKPGKAPKLLIYGASSLESGVPSRFSGSGSGTDFTLTISSLQPEDFASYYCQQANSFPYTFGQGTKLEIKR
light: B2 light
notes: Fabs from HCP-LCE; effector-silenced IgG1 LALA; also called scFv(VH)-IgG1(H)-scFv2

- On-cell affinity [9]: 21.2 nM
- Kd [10]: 172 nM
- Kd [14]: 1.8 nM
- Q2 (FITC+/PE+) % of events [12]: 12.2%
B5: K(αCD3ε)+H(αIL-6R) TriTECM (bispecific antibody)
heavy 1: not shown
heavy 2: B4 heavy 2
light: B2 light
notes: Fabs from HCP-LCE; effector-silenced IgG1 LALA; also called IgG1(H)-scFv2
